For orientation: stoichiometry N means a count of units in the complex or per binding partner.

Consider five molecules from publication PMC4538837, “Structural basis for substrate recognition and processive cleavage mechanisms of the trimeric exonuclease PhoExo I”.

Data set [1] addresses C-terminal 4×His-tagged PhoExo I (PhoExo I-CHis) (Pyrococcus horikoshii OT3). Kind of data set: SEC; gel filtration on Superdex 200 HR 10/30, 10 mM Tris HCl pH 8.0, 200 mM NaCl; size estimated against standard proteins.
The target of data set [2] is PhoExo I (native, untagged) (Pyrococcus horikoshii OT3). Kind of data set: crystal structure; substrate-free native PhoExo I, three crystal forms (crystals 1-3); sitting-drop vapour diffusion at 20°C; trimer in the asymmetric unit (crystals 1, 2) or by the crystallographic 3-fold axis (crystal 3).
Data set [3] deals with PhoExo I-CHis D80N mutant (Pyrococcus horikoshii OT3). Kind of data set: crystal structure; PhoExo I-CHis D80N cocrystallised with 7-nt ssDNAs (poly-dA, poly-dC, poly-dT; poly-dT crystal also soaked with 0.1 M MgCl2); 0.1 M MES pH 5.6-5.7, 12-14% PEG6000, 1 M LiCl.
For data set [4], the target named is T1, PhoExo I-CHis (wild type) (Pyrococcus horikoshii OT3, UniProt A0A060P168 1-229). The data set can be described thus: EMSA; 0.1 mM EDTA, no Mg2+; stronger than for the DNA of same sequence; EMSA: 25 mM Hepes-NaOH pH 7.5, 50 mM NaCl, 0.1 mM EDTA, 0.1 mg/ml BSA, 5 nM probe, 0-1600 nM trimer, 5 min 55 C, then 0.05% glutaraldehyde 10 min at room temperature; 7.5% native PAGE in TBE. As to conditions: protein: recombinant; tags: C-terminal 4xHis; chain copies: 3; label: 5'-32P; single strand. On the technique in general: In EMSA bound probe runs differently from free probe, usually more slowly.

The target in data set [5] is T1, PhoExo I-CHis (wild type). The data set can be described thus: EMSA; 0.1 mM EDTA, no Mg2+; affinity lower than for RNA; EMSA: 25 mM Hepes-NaOH pH 7.5, 50 mM NaCl, 0.1 mM EDTA, 0.1 mg/ml BSA, 5 nM probe, 0-1600 nM trimer, 5 min 55 C, then 0.05% glutaraldehyde 10 min at room temperature; 7.5% native PAGE in TBE. As to conditions: protein: recombinant; tags: C-terminal 4xHis; chain copies: 3; label: 5'-32P; single strand.

T1 sequence (A0A060P168 entry or part of it): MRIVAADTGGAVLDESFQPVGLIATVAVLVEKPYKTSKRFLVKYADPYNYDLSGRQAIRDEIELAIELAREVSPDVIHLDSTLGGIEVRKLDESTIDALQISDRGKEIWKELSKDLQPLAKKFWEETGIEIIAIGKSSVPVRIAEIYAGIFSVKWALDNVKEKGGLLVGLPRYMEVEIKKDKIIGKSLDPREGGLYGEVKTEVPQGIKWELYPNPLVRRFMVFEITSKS

On to “C-terminal 4×His-tagged PhoExo I (PhoExo I-CHis) (enzyme)”, for which, in data set [1], the stoichiometry N is 3. The molecule PhoExo I (native, untagged) (enzyme) returned a stoichiometry N in data set [2] of 3. For the molecule PhoExo I-CHis D80N mutant (enzyme), in data set [3], the stoichiometry N amounted to 3.

B1: 27-nt RNA (ssRNA)
RNA: AGCUAUGACCAUGAUUACGAAUUGCUU
On to B1, for which the binding result in data set [4] was “binds”.

B2: 27-nt DNA (ssDNA)
DNA: AGCTATGACCATGATTACGAATTGCTT
As for B2, in data set [5], the binding result is given as “binds”.
